Data: IntAct's records for PubMed 31548606

B1: Isoform 5 of Intermediate filament family orphan 1 (Homo sapiens), Q0D2I5-5 (parent)
chain: MNPLFGPNLFLLQQEQQGLAGPLGDSLGGDHFAGGGDLPPAPLSPAGPAAYSPPGPGPAPPAAMALRNDLGSNINVLKTLNLRFRCFLAKVHELERRNRLLEKQLQQALEEGKQGRRGLGRRDQAVQTGFVSPIRPLGLQLGARPAAVCSPSARVLGSPARSPAGPLAPSAASLSSSSTSTSTTYSSSARFMPGTIWSFSHARRLGPGLEPTLVQGPGLSWVHPDGVGVQIDTITPEIRALYNVLAKVKRERDEYKRRWEEEYTVRIQLQDRVNELQEEAQEADACQEELALKVEQLKAELVVFKGLMSNNLSELDTKIQEKAMKVDMDICRRIDITAKLCDVAQQRNCEDMIQMFQKKLVPSMGGRKRERKAAVEEDTSLSESEGPRQPDGDEEESTALSINEEMQRMLNQLREYDFEDDCDSLTWEETEETLLLWEDFSGYAMAAAEAQGEQQEDSLEKVIKDTESLFKTREKEYQETIDQIELELATAKNDMNRHLHEYMEMCSMKRGLDVQMETCRRLITQSGDRKSPAFTAVPLSDPPPPPSEAEDSDRDVSSDSSMR
B2: Prelamin-A/C (Homo sapiens), P02545-1 (parent)
chain: METPSQRRATRSGAQASSTPLSPTRITRLQEKEDLQELNDRLAVYIDRVRSLETENAGLRLRITESEEVVSREVSGIKAAYEAELGDARKTLDSVAKERARLQLELSKVREEFKELKARNTKKEGDLIAAQARLKDLEALLNSKEAALSTALSEKRTLEGELHDLRGQVAKLEAALGEAKKQLQDEMLRRVDAENRLQTMKEELDFQKNIYSEELRETKRRHETRLVEIDNGKQREFESRLADALQELRAQHEDQVEQYKKELEKTYSAKLDNARQSAERNSNLVGAAHEELQQSRIRIDSLSAQLSQLQKQLAAKEAKLRDLEDSLARERDTSRRLLAEKEREMAEMRARMQQQLDEYQELLDIKLALDMEIHAYRKLLEGEEERLRLSPSPTSQRSRGRASSHSSQTQGGGSVTKKRKLESTESRSSFSQHARTSGRVAVEEVDEEGKFVRLRNKSNEDQSMGNWQIKRQNGDDPLLTYRFPPKFTLKAGQVVTIWAAGAGATHSPPTDLVWKAQNTWGCGNSLRTALINSTGEEVAMRKLVRSVTVVEDDEDEDGDDLLHHHHGSHCSSSGDPAEYNLRSRTVLCGTCGQPADKASASGSGAQVGGPISSGSSASSVTVTRSYRSVGGSGGGSFGDNLVTRSYLLGNSSPRTQSPQNCSIM

Variants of: B1
Details: with xrcc4_human XRCC4, Q13426
Sequence of xrcc4_human XRCC4, Q13426 (Q13426 whole entry): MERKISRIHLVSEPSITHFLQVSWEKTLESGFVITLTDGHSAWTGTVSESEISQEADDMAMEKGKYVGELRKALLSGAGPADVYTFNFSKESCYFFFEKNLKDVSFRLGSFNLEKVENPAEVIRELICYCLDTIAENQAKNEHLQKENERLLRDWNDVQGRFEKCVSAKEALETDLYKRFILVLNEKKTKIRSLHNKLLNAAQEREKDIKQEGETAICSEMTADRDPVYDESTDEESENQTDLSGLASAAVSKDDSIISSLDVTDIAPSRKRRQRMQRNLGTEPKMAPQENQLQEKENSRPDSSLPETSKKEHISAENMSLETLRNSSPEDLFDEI

| Variant | effect of a mutation on the interaction |
| --- | --- |
| M516R;C519R | disrupting interaction strength |
| D494A;D513A;R520A | disrupting interaction strength |
| C519R | disrupting interaction strength |
| D494A;R520A | disrupting interaction strength |
| I484R;A491R | disrupting interaction strength |

Variants of: B1
Details: with lmna_human LMNA

| Variant | effect of a mutation on the interaction |
| --- | --- |
| A89T | with no effect |
| A89V | with no effect |
| N73D | disrupting interaction strength |
| N73K | decreasing interaction strength |
| R85H | disrupting interaction strength |
| A65P | with no effect |
| A65V | with no effect |

Variants of: B1
Details: with lmna_human LMNA
Remark: another data set of the same source

| Variant | effect of a mutation on the interaction |
| --- | --- |
| N73D;R85H | disrupting interaction strength |

Variants of: B2
Details: with iffo1_human IFFO1, Q0D2I5

| Variant | effect of a mutation on the interaction |
| --- | --- |
| R386M | disrupting interaction strength |
| E358K | disrupting interaction strength |
